Data published in US9850293B2, “Targeting trastuzumab-resistant HER2+ breast cancer with a HER3-targeting nanoparticle” (priority 2014, dated 2017).

How the values were obtained:
[1] = Particle size (cryoEM, dynamic light scattering); type: physicochemical; settings: round particles
Experimental: (§1) (A) depicts a graphic of HerDox formed by non-covalent, serum-stable self-assembly, showing HerPBK10 with functional domains delineated, and electrophilic binding with Dox-intercalated ds-oligo. (B) depicts a CryoEM image of HerDox particles. (C) is a HPLC chromatogram of HerDox showing elution profile of Dox absorbance. […] (D) illustrates the protection of ds-oligo from serum nuclease digestion by HerPBK10. The ds-oligo was incubated for 20 min in 100% mouse serum (Abcam, Cambridge, Mass., USA) before PAGE and EtBr staining to visualize the DNA. (E) illustrates that HerDox remains stable in blood. […] N=3. *, p<0.05, compared to respective retentates.
FIG. 33 illustrates the formation of certain corroles. […] Table summarizes salient features of the three corroles.
In some embodiments, the corrole comprises a metallic chemical element. In some of these embodiments, the metal is a transition metal. In some embodiments, the metal is Iron (Fe), Manganese (Mn), or Gallium (Ga). In other embodiments, the corrole is non-metallated. Metallated and non-metallated corroles bind in protein pockets with negligible dissociation. […] Corrole assembly with HerPBK10 yields 25-35 corroles/protein, resulting in 10-20 nm round particles (FIG. 33-B) that withstand high-speed ultrafiltration.

[2] = Stability in mouse whole blood; type: in vitro ADME; settings: 0.12 mg/mL Dox, 37° C., up to one hour
Experimental: FIG. 13 illustrates stability in mouse whole blood. […] As 0.5 mM EDTA was used as an anticoagulant, HerDox in EDTA alone (− blood) was processed in parallel. Bars represent fluorescence of retained (retentates) or released (filtrates) Dox as a percentage of the total fluorescence of each sample. Scale of Y-axis is adjusted to show presence of filtrate samples. N=3 per treatment.
as §1
As the anticoagulant, 0.5 mM EDTA, was present in the blood collection, parallel samples were incubated at 37° C. in EDTA alone. Samples representing input HerDox (before incubation in blood) were incubated at 37° C. in HEPES-buffered saline.

MDA-MB-435 = assay: Cytotoxicity on cell lines (HerDox dose curves); type: cell-based, human; settings: concentration yielding 50% reduction in cell survival, mean ± SD
Experimental: FIG. 17 (B) depicts toxicity to cells displaying differential HER2. Cytotoxicities from a range of HerDox doses were assessed on each cell line by metabolic assay and confirmed by crystal violet stain. LD50 values shown in log scale were determined by non-linear regression analyses of HerDox dose curves using a scientific graphing program and confirmed using a calculator. The relative HER2 level of each cell line is shown next to each LD50 value.
The inventors measured cell surface levels of HER subunits on various cell lines and types described herein, as previously described levels may not reflect the actual levels in the available cells used. The inventors acquired the indicated cell lines from ATCC and the NIH/NCI and profiled these with respect to HER subunit levels (FIG. 17 (A)). To assess whether HerDox induces toxicity in accordance to HER2 levels, the inventors selected lines displaying HER2 at relatively high (SKBR3), moderate (MDA-MB-435, MDA-MB-453, HeLa), and low to undetectable (MDA-MB-231) levels, and performed cytotoxicity dose curves.

U251 human glioma cells = assay: Toxicity to glioma cells (cell count); type: cell-based; settings: four days
Experimental: Significant differences were determined by 2-tailed tests.
Cells were trypsinized and counted on the last day.

T47D = assay: Cytotoxicity on cell lines (HerDox dose curves); type: cell-based, human; settings: concentration yielding 50% reduction in cell survival, mean ± SD
[3] = HerDox stability under storage conditions; type: physicochemical; settings: up to 12 days
Experimental: FIG. 6 (A) illustrates conjugate stability under different storage conditions, or in serum. HerDox was incubated up to 12 days at 4° C., Room Temperature, or 37° C. Samples were filtered through ultrafiltration spin columns every other day.
The inventors tested the stability of HerDox over 12 days under different storage temperatures: 40° C., room temperature, or 37° C. […] The inventors also examined HerDox stability in serum-containing media at 37° C. […] Dox retention in the conjugate was also assessed by eluting the conjugate from the beads at each time point.

[4] = system: HER2+ tumors (MDA-MB-435); assay: In vivo tumor toxicity (tumor growth); design: species or system mouse; settings: 0.004 mg/kg with respect to Dox, daily tail vein injections for 7 days
JIMT-1 cell line = assay: Tumor cell killing in culture, pre-existing resistance; type: cell-based, human; settings: JIMT-1, dose-dependent, maximum
Experimental: N=3. *, p<0.05 compared to parental. […] N=3. […] Treatments were compared to mock (saline)-treatment. […] N=3. *, p<0.05 compared to parental. […] N=3.
The efficacy of HerDox was also examined on a cell line with pre-existing resistance.
The contribution of HER3 to targeted toxicity was evaluated by assessing whether pre-adsorbing HerDox with a peptide comprising the ligand-binding domain of HER3 blocked cytotoxicity.

[5] = system: parental and resistant cell lines (JIMT-1, BT-474, SKBR3); assay: HerDox −/+ HER3 blocking peptide, cell survival; type: cell-based, human; settings: equimolar HER3:HerPBK10, 48 hours
Experimental: (A)_-illustrates that resistance enhances HerDox toxicity. […] N=3. *, p<0.05 compared to parental. (B)_illustrates that resistance enhances HerDox toxicity. […] N=3. (C) illustrates contribution of HER3 to targeted toxicity. […] Treatments were compared to mock (saline)-treatment. […] N=3. *, p<0.05 compared to parental. […] N=3.
The contribution of HER3 to targeted toxicity was evaluated by assessing whether pre-adsorbing HerDox with a peptide comprising the ligand-binding domain of HER3 blocked cytotoxicity. […] In contrast, HerDox yielded dose-dependent cell death and eliminated up to 90% of the cells (FIG. 27-E).

HER2+ tumors = assay: HerDox and Dox biodistribution (Dox fluorescence imaging)
Excerpt: FIG. 11 (A) depicts imaging of live mice after IV delivery of HerDox. Tumors are indicated by arrows.

[6] = single tail vein injection, live imaging
[7] = tissues harvested ~3 h after injection

B1: HerDox: non-covalent complex of HerPBK10, double-stranded oligonucleotide and intercalated Dox (Unit A+Unit B+Unit C) (conjugate)
chain: SHLVKCAEKEKTFCVNGGECFMVKDLSNPSRYLCKCQPGFTGARCTENVPMKVQNQEKAEELYQKMRRAAMYEEGPPPSYESVVSAAPVAAALGSPFDAPLDPPFVPPRYLRPTGGRNSIRYSELAPLFDTTRVYLVDNKSTDVASLNYQNDHSNFLTTVIQNNDYSPGEASTQTINLDDRSHWGGDLKTILHTNMPNVNEFMFTNKFKARVMVSRLPTKDNQVELKYEWVEFTLPEGNYSETMTIDLMNNAIVEHYLKVGRQNGVLESDIGVKFDTRNFRLGFDPVTGLVMPGVYTNEAFHPDIILLPGCGVDFTHSRLSNLLGIRKRQPFQEGFRITYDDLEGGNIPALLDVDAYQASLKDDTEQGGGGAGGSNSSGSGAEENSNAAAAAMQPVEDMNDHAIRGDTFATRAEEKRAEAEAAAEAAAPAAQPEVEKPQKKPVIKPLTEDSKKRSYNLISNDSTFTQYRSWYLAYNYGDPQTGIRSWTLLCTPDVTCGSEQVYWSLPDMMQDPVTFRSTRQISNFPVVGAELLPVHSKSFYNDQAVYSQLIRQFTSLTHVFNRFPENQILARPPAPTITTVSENVPALTDHGTLPLRNSIGGVQRVTITDARRRTCPYVYKALGIVSPRVLSSRTFKKKKKKKKKK
modifications: left off: small tags and cut ends
particle diameter [1]: 10-50 nm
loss of Dox from conjugate in whole blood [2]: no detectable loss of Dox from the conjugate
EC50 (MDA-MB-435): 0.74 ± 0.07 µM
toxicity relative to the equivalent concentration of Dox (U251 human glioma cells; 0.5 μM or 1 μM): 8-10 times
factor less HerDox eliciting the same toxicity as Dox (U251 human glioma cells): 10 ×
EC50 (T47D): 0.64 ± 0.04 µM
product remaining intact ([3]; 4° C.): 100%
effect of storage on drug incorporation ([3]; room temperature and 37° C.): appeared to enhance the incorporation of the drug
effect on tumor growth [4]: essentially prevented tumor growth
cells killed (JIMT-1 cell line): up to 90%
cell death after pre-adsorbing with HER3 peptide [5]: inhibited by the HER3 peptide
time fluorescence remained detectable in the tumors (HER2+ tumors; [6]): up to 100 min
time of fluorescence accumulation at the tumors (HER2+ tumors; [6]): ≤ 20 min
fluorescence in kidneys (HER2+ tumors; [7]): barely detectable
fluorescence in liver (HER2+ tumors; [7]): substantially lower levels of fluorescence
fluorescence in other tissues (heart, spleen, lungs, skeletal muscle) (HER2+ tumors; [7]): did not exhibit any fluorescence
fluorescence in tumors (HER2+ tumors; [7]): intense fluorescence in the tumors
